According to patent publication US20170333517:

Molecular target: T1, N-acetyl-proline-glycine-proline
T1 chain: PGP

B1: recombinant human aminopeptidase N (protein)
chain: KAWNRYRLPNTLKPDSYRVTLRPYLTPNDRGLYVFKGSSTVRFTCKEATDVIIIHSKKLNYTLSQGHRVVLRGVGGSQPPDIDKTELVEPTEYLVVHLKGSLVKDSQYEMDSEFEGELADDLAGFYRSEYMEGNVRKVVATTQMQAADARKSFPCFDEPAMKAEFNITLIHPKDLTALSNMLPKGPSTPLPEDPNWNVTEFHTTPKMSTYLLAFIVSEFDYVEKQASNGVLIRIWARPSAIAAGHGDYALNVTGPILNFFAGHYDTPYPLPKSDQIGLPDFNAGAMENWGLVTYRENSLLFDPLSSSSSNKERVVTVIAHELAHQWFGNLVTIEWWNDLWLNEGFASYVEYLGADYAEPTWNLKDLMVLNDVYRVMAVDALASSHPLSTPASEINTPAQISELFDAISYSKGASVLRMLSSFLSEDVFKQGLASYLHTFAYQNTIYLNLWDHLQEAVNNRSIQLPTTVRDIMNRWTLQMGFPVITVDTSTGTLSQEHFLLDPDSNVTRPSEFNYVWIVPITSIRDGRQQQDYWLIDVRAQNDLFSTSGNEWVLLNLNVTGYYRVNYDEENWRKIQTQLQRDHSAIPVINRAQIINDAFNLASAHKVPVTLALNNTLFLIEERQYMPWEAALSSLSYFKLMFDRSEVYGPMKNYLKKQVTPLFIHFRNNTNNWREIPENLMDQYSEVNAISTACSNGVPECEEMVSGLFKQWMENPNNNPIHPNLRSTVYCNAIAQGGEEEWDFAWEQFRNATLVNEADKLRAALACSKELWILNRYLSYTLNPDLIRKQDATSTIISITNNVIGQGLVWDFVQSNWKKLFNDYGGGSFSFSNLIQAVTRRFSTEYELQQLEQFKKDNEETGFGSGTRALEQALEKTKANIKWVKENKEVVLQWFTENSK
- degradation of Ac-PGP (residual Ac-PGP by ESI-LC-MS/MS after 24 h; 1 µg/ml enzyme, 100 µg/ml Ac-PGP): APN had no activity

B2: recombinant human angiotensin converting enzyme (protein)
chain: LDPGLQPGNFSADEAGAQLFAQSYNSSAEQVLFQSVAASWAHDTNITAENARRQEEAALLSQEFAEAWGQKAKELYEPIWQNFTDPQLRRIIGAVRTLGSANLPLAKRQQYNALLSNMSRIYSTAKVCLPNKTATCWSLDPDLTNILASSRSYAMLLFAWEGWHNAAGIPLKPLYEDFTALSNEAYKQDGFTDTGAYWRSWYNSPTFEDDLEHLYQQLEPLYLNLHAFVRRALHRRYGDRYINLRGPIPAHLLGDMWAQSWENIYDMVVPFPDKPNLDVTSTMLQQGWNATHMFRVAEEFFTSLELSPMPPEFWEGSMLEKPADGREVVCHASAWDFYNRKDFRIKQCTRVTMDQLSTVHHEMGHIQYYLQYKDLPVSLRRGANPGFHEAIGDVLALSVSTPEHLHKIGLLDRVTNDTESDINYLLKMALEKIAFLPFGYLVDQWRWGVFSGRTPPSRYNFDWWYLRTKYQGICPPVTRNETHFDAGAKFHVPNVTPYIRYFVSFVLQFQFHEALCKEAGYEGPLHQCDIYRSTKAGAKLRKVLQAGSSRPWQEVLKDMVGLDALDAQPLLKYFQPVTQWLQEQNQQNGEVLGWPEYQWHPPLPDNYPEGIDLVTDEAEASKFVEEYDRTSQVVWNEYAEANWNYNTNITTETSKILLQKNMQIANHTLKYGTQARKFDVNQLQNTTIKRIIKKVQDLERAALPAQELEEYNKILLDMETTYSVATVCHPNGSCLQLEPDLTNVMATSRKYEDLLWAWEGWRDKAGRAILQFYPKYVELINQAARLNGYVDAGDSWRSMYETPSLEQDLERLFQELQPLYLNLHAYVRRALHRHYGAQHINLEGPIPAHLLGNMWAQTWSNIYDLVVPFPSAPSMDTTEAMLKQGWTPRRMFKEADDFFTSLGLLPVPPEFWNKSMLEKPTDGREVVCHASAWDFYNGKDFRIKQCTTVNLEDLVVAHHEMGHIQYFMQYKDLPVALREGANPGFHEAIGDVLALSVSTPKHLHSLNLLSSEGGSDEHDINFLMKMALDKIAFIPFSYLVDQWRWRVFDGSITKENYNQEWWSLRLKYQGLCPPVPRTQGDFDPGAKFHIPSSVPYIRYFVSFIIQFQFHEALCQAAGHTGPLHKCDIYQSKEAGQRLATAMKLGFSRPWPEAMQLITGQPNMSASAMLSYFKPLLDWLRTENELHGEKLGWPQYNWTPNSARSEGPLPDSGRVSFLGLDLDAQQARVGQWL
- degradation of Ac-PGP (residual Ac-PGP by ESI-LC-MS/MS after 24 h; 1 µg/ml enzyme, 100 µg/ml Ac-PGP): ACE degraded 70% of Ac-PGP
